Test results taken from patent US7214517B2, “α1,2-fucosyltransferase and DNA encoding the same” (Kyowa Hakko Kogyo Co., Ltd., priority 2001, dated 2007).

Tests used:
[1] = Production of fucosyllactose in the presence or absence of GDP (feedback inhibition, Example 8); format: biochemical; details: conclusion from Table 2
Procedure: (§1) Escherichia coli DH5α/pHMFT80 obtained in Example 5 was inoculated on 8 ml of LB medium [containing 10 g/l bacto tryptone (manufactured by Difco), 10 g/l yeast extract (manufactured by Difco) and 5 g/l NaCl] containing 50 μg/ml ampicillin in a test tube, and cultured at 30° C. for 12 hours. The culture was inoculated into 8 ml of LB medium containing 50 μg/ml ampicillin, with an inoculum size of 5%, and cultured at 30° C. for 2 hours. Then, isopropyl-β-D-thiogalactopyranoside was added thereto at a final concentration of 1 mmol/l, and further cultured at 30° C. for 8 hours. Wet cells were obtained by centrifuging 1 ml of the culture. Since the wet cells can be stored at −20° C., if necessary, it was able to use them by thawing-prior to use.
(§2) The reaction was carried out at 32° C. for 9 hours in 0.1 ml of a reaction solution composed of the wet cells of Escherichia coli DH5α/pHMFT80 prepared from 1 ml of the culture, 50 mmol/l of a citrate buffer (pH 7.0), 10 mmol/l MnCl2, 10 mmol/l lactose, 10 mmol/l GDP-fucose and 4 g/l Nymeen S-215.
Fucosyllactose was produced in a similar manner described in Example 7 in the presence or absence of 5 mmol/l guanosine 5′-diphosphate (GDP) using lactose as an acceptor carbohydrate.

[2] = Production of fucose-containing carbohydrate from different acceptor carbohydrates, wet cells as enzyme source (Example 7); format: biochemical; details: conclusion from Table 1
Procedure: as §1, §2
• Column: CarboPAC PA10 • Eluent:. A; H2O, B; 500 mmol/l NaOH • Gradient: Concentration of the eluent B at 0 minute is adjusted to 8% and increased to 20% spending 21 minutes. • Detector: Pulsed amperometry detector
Escherichia coli DH5α/pHMFT80 and Escherichia coli DH5α/pHPFT80 respectively obtained in. […]

B1: Helicobacter mustelae-derived α1,2-fucosyltransferase: Protein comprising the amino acid sequence of SEQ ID NO:1, from Helicobacter mustelae ATCC 43772 (protein, listed as Helicobacter mustelae)
chain: MDFKIVQVHGGLGNQMFQYAFAKSLQTHLNIPVLLDTTWFDYGNRELGLHLFPIDLQCASAQQIAAAHMQNLPRLVRGALRRMGLGRVSKEIVFEYMPELFEPSRIAYFHGYFQDPRYFEDISPLIKQTFTLPHPTEHAEQYSRKLSQILAAKNSVFVHIRRGDYMRLGWQLDISYQLRAIAYMAKRVQNLELFLFCEDLEFVQNLDLGYPFVDMTTRDGAAHWDMMLMQSCKHGIITNSTYSWWAAYLIKNPEKIIIGPSHWIYGNENILCKDWVKIESQFETKS
For B1, the “sensitivity to feedback inhibition by GDP compared to Helicobacter pylori-derived α1,2-fucosyltransferase” value [1] was “more insensitive to feedback inhibition by GDP”, the “activity compared to Helicobacter pylori-derived α1,2-fucosyltransferase” value [2] was “higher activity” and the “substrate specificity compared to Helicobacter pylori-derived α1,2-fucosyltransferase” value [2] was “higher substrate specificity to lactose”.
